Measured values taken from article PMC11505474, “Functional Characterization of the Ciliate Stylonychia lemnae Serotonin N-Acetyltransferase, a Pivotal Enzyme in Melatonin Biosynthesis and Its Overexpression Leads to Peroxidizing Herbicide Tolerance in Rice” (Antioxidants, 2024).

Tests used:
[1] = system: NCCc1c[nH]c2ccc(O)cc12; experiment: purified protein; details: acetyl-CoA 0.5 mM co-substrate, 100 mM potassium phosphate, pH 8.8 (or varying pH), 55 °C (general assay)
[2] = system: COc1ccc2[nH]cc(CCN)c2c1; experiment: purified protein; details: acetyl-CoA 0.5 mM co-substrate, 100 mM potassium phosphate, pH 8.8 (or varying pH), 55 °C (general assay)

Substance: SlSNAT (Stylonychia lemnae serotonin N-acetyltransferase) (Stylonychia lemnae)
- Km [1]: 776 µM
- Km [2]: 246 µM
